± gives the uncertainty stated by the source.
Assay: self-splicing fitness, log relative to wild type (ln ratio); higher = more splicing; Tetrahymena group I intron in knt gene, E. coli kanamycin selection, DiMSum; sequences stand for … in CUCUCU…GGAGGGAAAAGUUAUCAGGCAUGCACCUGGUAGCUAGUCUUUAAACCAAUAGAUUGCAUCGGUUUAAAAGGCAAGACCGUCAAAUUGCGGGAAAGGGGUCAACAGCCGUUCAGUACCAAGUCUCAGGGGAAACUUUGAGAUGGCCUUGCAAAGGGUAUGGUAAUAAGCUGACGGACAUGGUCCUAACCACGCAGCCAAGUCCUAAGUCAACAGAUCUUCUGUUGAUAUGGAUGCAGUUCACAGACUAAAUGUCGGUCGGGGAAGAUGUAUUCUUCUCAUAAGAUAUAGUCGGACCUCUCCUUAAUGGGAGCUAGCGGAUGAAGUGAUGCAACACUGGAGCCGCUGGGAACUAAUUUGUAUGCGAAAGUAUAUUGAUUAGUUUUGGAGUACUCGUGGUCG
Outline: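 Colonies from six replicate transformations of E. coli BL21(DE3) were pooled and amplicon-sequenced on an Illumina HiSeq 2500. The library placed an intron with all eight P1ex-region nucleotides randomised inside the knt kanamycin-resistance gene on pET-22b(+), and cells grew overnight at 37°C or 30°C on LB agar with or without 25 μg/mL kanamycin (plus 100 μg/mL carbenicillin, 50 μM IPTG, 0.2% rhamnose). Fitness is the DiMSum error-weighted combination of wild-type-normalised replicate fold changes, kanamycin versus none.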

| Sequence | self-splicing fitness (ln) (30 °C) | self-splicing fitness (ln) (37 °C) |
| --- | --- | --- |
| GAAGAGCAAUAUUACGGUGA | -2.47 ± 0.16 | -1.02 ± 0.096 |
| GAAGAGCAAUAUUACGUCGC | -2.58 ± 0.28 | 0.595 ± 0.21 |
| GAAGAGCAAUAUUACGUGCG | -2.87 ± 0.15 | -2.03 ± 0.17 |
| GAAGAGCAAUAUUACGUGCU | -3.52 ± 0.22 |  |
| GAAGAGCAAUAUUACGUUAA | -2.65 ± 0.22 | -1.65 ± 0.2 |
| GAAUAGCAAUAUUACGAACA | -0.419 ± 0.13 | -0.622 ± 0.11 |
| GAAUAGCAAUAUUACGAACG | -1.64 ± 0.1 | -0.336 ± 0.11 |
| GAAUAGCAAUAUUACGACGU | -0.363 ± 0.11 | 0.265 ± 0.13 |
| GAAUAGCAAUAUUACGAGUU | -2.2 ± 0.084 | -0.978 ± 0.093 |
| GAAUAGCAAUAUUACGAUCA | -1.11 ± 0.12 | 0.308 ± 0.11 |
| GAAUAGCAAUAUUACGAUCC | -1.16 ± 0.14 | -0.622 ± 0.15 |
| GAAUAGCAAUAUUACGAUUC | -2.67 ± 0.14 | -2.24 ± 0.2 |
| GAAUAGCAAUAUUACGCCGA | -1.62 ± 0.31 | 0.319 ± 0.22 |
| GAAUAGCAAUAUUACGCCGG | -2.65 ± 0.32 | -1.79 ± 0.24 |
| GAAUAGCAAUAUUACGCGAU | -3.41 ± 0.2 | -2.5 ± 0.19 |
| GAAUAGCAAUAUUACGCGUU | -3.4 ± 0.24 | -1.37 ± 0.15 |
| GAAUAGCAAUAUUACGCUCU | -1.58 ± 0.12 | -1.4 ± 0.14 |
| GAAUAGCAAUAUUACGGCUC | 0.451 ± 0.09 | 0.374 ± 0.14 |
| GAAUAGCAAUAUUACGUCGA | -0.367 ± 0.11 | -0.794 ± 0.12 |
| GAAUAGCAAUAUUACGUUAA | -2.56 ± 0.17 | -1.9 ± 0.15 |
| GAAUAGCAAUAUUACGUUCA | -1.04 ± 0.38 | -0.336 ± 0.3 |
| GAAUAGCAAUAUUACGUUCU | -3.24 ± 0.26 | -1.82 ± 0.27 |
| GACAAGCAAUAUUACGAAAA | -2.27 ± 0.24 | -2.22 ± 0.31 |
| GACAAGCAAUAUUACGAAGC | -2.96 ± 0.22 | -2.15 ± 0.28 |

| Sequence | self-splicing fitness (ln) (30 °C) | self-splicing fitness (ln) (37 °C) |
| --- | --- | --- |
| GACAAGCAAUAUUACGAGCA | -1.12 ± 0.093 | -0.355 ± 0.092 |
| GACAAGCAAUAUUACGAGUA | -2.1 ± 0.12 | -0.706 ± 0.098 |
| GACAAGCAAUAUUACGAUAC | -1.73 ± 0.094 | -1.28 ± 0.11 |
| GACAAGCAAUAUUACGAUGU | -1.66 ± 0.067 | -1.65 ± 0.11 |
| GACAAGCAAUAUUACGCAAU | -3.08 ± 0.15 | -1.58 ± 0.12 |
| GACAAGCAAUAUUACGCCGU | -2.93 ± 0.14 | -0.97 ± 0.12 |
| GACAAGCAAUAUUACGCGAG | -1.25 ± 0.11 | -2.03 ± 0.15 |
| GACAAGCAAUAUUACGCGAU | -2.96 ± 0.13 | -1.02 ± 0.099 |
| GACAAGCAAUAUUACGGACG | -1.75 ± 0.098 | -0.673 ± 0.12 |
| GACAAGCAAUAUUACGGAGC | -2.2 ± 0.09 | -1.65 ± 0.13 |
| GACAAGCAAUAUUACGGCGU | -0.596 ± 0.063 | -0.154 ± 0.08 |
| GACAAGCAAUAUUACGGGUA | -0.935 ± 0.066 | -0.82 ± 0.069 |
| GACAAGCAAUAUUACGGUGA | -1.3 ± 0.065 | -0.86 ± 0.086 |
| GACAAGCAAUAUUACGUAGU | -3.92 ± 0.18 | -1.65 ± 0.11 |
| GACAAGCAAUAUUACGUUGG | -3.26 ± 0.11 | -2.56 ± 0.14 |
| GACAAGCAAUAUUACGUUUA | -1.66 ± 0.084 | -1.58 ± 0.089 |
| GACCAGCAAUAUUACGACAA | -0.854 ± 0.099 | -0.621 ± 0.13 |
| GACCAGCAAUAUUACGAUCU | -0.841 ± 0.091 | -0.153 ± 0.1 |
| GACCAGCAAUAUUACGAUGG | -3.69 ± 0.19 | -2.82 ± 0.21 |
| GACCAGCAAUAUUACGCAGC | -0.913 ± 0.11 | -0.292 ± 0.13 |
| GACCAGCAAUAUUACGCCCU | -0.482 ± 0.11 | -0.286 ± 0.12 |
| GACCAGCAAUAUUACGCGCC | -0.0376 ± 0.14 | -0.617 ± 0.18 |
| GACCAGCAAUAUUACGCGGG | -3.03 ± 0.13 | -2.79 ± 0.19 |
| GACCAGCAAUAUUACGGCCC | -2.54 ± 0.24 | -1.98 ± 0.34 |

| Sequence | self-splicing fitness (ln) (30 °C) | self-splicing fitness (ln) (37 °C) |
| --- | --- | --- |
| GACCAGCAAUAUUACGGCCG | -0.246 ± 0.063 | 0.158 ± 0.093 |
| GACCAGCAAUAUUACGGGAC | -2.5 ± 0.092 | -1.03 ± 0.092 |
| GACCAGCAAUAUUACGGGUA | -0.533 ± 0.058 | -0.146 ± 0.061 |
| GACCAGCAAUAUUACGGGUU | -4.24 ± 0.21 | -2.53 ± 0.18 |
| GACCAGCAAUAUUACGGUUA | -0.367 ± 0.046 | -0.221 ± 0.056 |
| GACCAGCAAUAUUACGUGAA | -0.0938 ± 0.063 | 0.524 ± 0.089 |
| GACCAGCAAUAUUACGUGGU | -2.67 ± 0.095 | -3.29 ± 0.15 |
| GACCAGCAAUAUUACGUGUG | -0.363 ± 0.047 | -0.452 ± 0.058 |
| GACGAGCAAUAUUACGAAGG | -3.03 ± 0.19 | -2.52 ± 0.33 |
| GACGAGCAAUAUUACGACAG |  | -1.89 ± 0.23 |
| GACGAGCAAUAUUACGAGGU | -3.81 ± 0.28 | -2.38 ± 0.27 |
| GACGAGCAAUAUUACGAUUU | -0.943 ± 0.085 | -1.19 ± 0.098 |
| GACGAGCAAUAUUACGCAAA | -3.39 ± 0.27 | -1.96 ± 0.22 |
| GACGAGCAAUAUUACGCAGA | -3.74 ± 0.33 | -3.45 ± 0.42 |
| GACGAGCAAUAUUACGCCUA | -0.714 ± 0.32 |  |
| GACGAGCAAUAUUACGCGAG | -2.3 ± 0.17 | -2.85 ± 0.26 |
| GACGAGCAAUAUUACGCGGU | -4.23 ± 0.31 | -1.83 ± 0.2 |
| GACGAGCAAUAUUACGCUAG | -3.19 ± 0.19 | -2.47 ± 0.18 |
| GACGAGCAAUAUUACGGAAC | -1.3 ± 0.19 | -2.43 ± 0.35 |
| GACGAGCAAUAUUACGGAUC | -2.68 ± 0.39 | -1.75 ± 0.44 |
| GACGAGCAAUAUUACGGCAG | -2.04 ± 0.25 | -2.51 ± 0.38 |
| GACGAGCAAUAUUACGGCCG | -2.02 ± 0.25 | -0.723 ± 0.37 |
| GACGAGCAAUAUUACGGCGC | -1.79 ± 0.093 | -0.8 ± 0.11 |
| GACGAGCAAUAUUACGGCGU | -3.7 ± 0.32 | -1.9 ± 0.26 |

| Sequence | self-splicing fitness (ln) (30 °C) | self-splicing fitness (ln) (37 °C) |
| --- | --- | --- |
| GACGAGCAAUAUUACGGUAA | -3.65 ± 0.47 | -2.33 ± 0.33 |
| GACGAGCAAUAUUACGUACU | -1.64 ± 0.18 | -0.775 ± 0.14 |
| GACGAGCAAUAUUACGUAUG | -2.4 ± 0.17 | -1.58 ± 0.16 |
| GACGAGCAAUAUUACGUCAU | -2.2 ± 0.2 | -3.16 ± 0.43 |
| GACGAGCAAUAUUACGUCCA | -2.11 ± 0.32 | -2.68 ± 0.31 |
| GACGAGCAAUAUUACGUCCC |  | -0.0984 ± 0.5 |
| GACGAGCAAUAUUACGUCUA | -2.4 ± 0.23 | -1.43 ± 0.13 |
| GACGAGCAAUAUUACGUCUG | -3.64 ± 0.22 | -2.53 ± 0.2 |
| GACUAGCAAUAUUACGAAAG | -2.97 ± 0.16 | -1.8 ± 0.2 |
| GACUAGCAAUAUUACGAACG | -1.34 ± 0.11 | -0.144 ± 0.15 |
| GACUAGCAAUAUUACGAACU | 0.186 ± 0.15 | 1.04 ± 0.22 |
| GACUAGCAAUAUUACGAAGC | -2.18 ± 0.18 | -1.55 ± 0.18 |
| GACUAGCAAUAUUACGAAUC | -2.28 ± 0.32 | -1.83 ± 0.28 |
| GACUAGCAAUAUUACGACAU | -0.511 ± 0.012 | -0.122 ± 0.032 |
| GACUAGCAAUAUUACGAGCU | -1.61 ± 0.13 | -0.918 ± 0.093 |
| GACUAGCAAUAUUACGAGGC |  | -2.23 ± 0.3 |
| GACUAGCAAUAUUACGAUAC | -1.31 ± 0.07 | -0.489 ± 0.092 |
| GACUAGCAAUAUUACGAUCG | -1.24 ± 0.13 | -0.31 ± 0.21 |
| GACUAGCAAUAUUACGAUCU | -0.896 ± 0.087 | -1.38 ± 0.096 |
| GACUAGCAAUAUUACGAUGA | -0.535 ± 0.1 | -1.08 ± 0.08 |
| GACUAGCAAUAUUACGCCAU | -2.02 ± 0.12 | -1.32 ± 0.14 |
| GACUAGCAAUAUUACGCCGC | -3.31 ± 0.21 | -1.65 ± 0.2 |
| GACUAGCAAUAUUACGCGAU | -2.8 ± 0.21 | -2.42 ± 0.3 |
| GACUAGCAAUAUUACGCGCA | -0.593 ± 0.16 | -0.286 ± 0.18 |
